For this assay, the system named is Response Element-driven mCerulean reporter (MTERF1 binding sites, SEQ ID NO: 42). The assay is described as follows: mCerulean reporter co-transfection with HumTAP constructs in HEK293 cells (flow cytometry). Type of assay: cell-based, human. The following applies: HEK293; for reporter gene (mCerulean) expression / reporter (mCerulean) expression / mCerulean expression, fold lower than the benchmark RelA430-551 TAD: TAD fused to MTERF158-399; for reporter gene (mCerulean) expression: 5xRE reporter without spacer (SEQ ID NO: 48), compared with RelA430-551 (Example 1, FIG. 4A); for reporter (mCerulean) expression: pEF1a-driven, Example 4, FIG. 9B, C; for mCerulean expression, fold lower than the benchmark RelA430-551 TAD: FIG. 9B; for fluorescence relative to only one copy of the respective TAD: Example 1, FIG. 4A; for output expression / transcriptional activation: N-terminally truncated MTERF1 fused to RelA430-551, reporter SEQ ID NO: 48 (Example 1, FIG. 5B); for reporter expression, times less than with MTERF158-399: truncated MTERF1 DBD, FIG. 9E. From the text: To construct a promoter with Response Elements/MTERF1 binding sites driving the gene of interest, the inventors placed MTERF1 binding sites (SEQ ID NO: 42) upstream a minimal TATA box (SEQ ID NO: 103). An mCerulean fluorescent reporter representing the gene of interest (Gol) was placed downstream of the TATA box. Each of these is referred to as a reporter construct. Five different reporter constructs were made comprising respectively 3, 5, 7, 9, and 11 MTERF1 binding sites 6 base pairs apart upstream of the TATA box (FIG. 1A; SEQ ID NO: 41, 44, 45, 46 and 47, respectively). They were co-transfected with the MTF construct into Hela cells. […] Using flow cytometry, relative mCerulean levels were measured and calculated by normalization to the transfection control in Hela cells (FIG. 1C). […] Next, reporter plasmids with varying spacer lengths (0, 6 bp and 10 bp; SEQ ID NO: 48, 44 and 49, respectively) (FIG. 1F) between a fixed number of REs (i.e. 5 REs/MTERF1 binding sites) were transfected with the MTF construct. […] This was confirmed using flow cytometry (FIG. 1H). […]
With the goal to engineer stronger and possibly shorter HumTAPs, the inventors fused the MTERF158-399 peptide (SEQ ID NO: 1) to a variety of transactivation domains and transfected HEK293 cells with those constructs and the reporter construct comprising 5×RE/MTERF1 binding sites without a spacer between them (SEQ ID NO: 48).
First, MTERF158-399 (SEQ ID NO: 1) was fused with different subsequences of RelA. RelA361-551 (SEQ ID NO: 27) corresponds to the sequence used in the construction of the bacterial-derived synthetic TF PIT2 [19], while RelA342-551 (SEQ ID NO: 29) contains all annotated transactivation domains according to domain annotation under Uniprot Q04206 (https://www.uniprot.org/uniprotkb/Q04206/entry). […] We also fused MTERF158-399 (SEQ ID NO: 1) to a set of transactivation domains previously found to be strong activators with a small genetic footprint (FIG. 4B).
To further decrease the DNA footprint of a HumTAP, the inventors investigated to what degree the DNA binding domain may be reduced. To this end, the inventors created 3 versions of MTERF1 subsequences fused to RelA430-551 (SEQ ID NO: 3). MTERF173-399 (SEQ ID NO: 7), MTERF1104-399 (SEQ ID NO: 9), and MTERF1135-399 (SEQ ID NO: 11) are subunits of MTERF1 without its mitochondrial transfer peptide (MTERF11-57; SEQ ID NO: 37) that either lack only the first […] N-terminal amino acids (MTERF58-72; SEQ ID NO: 39) or additionally, also lack the first (MTERF173-98; SEQ ID NO: 104) or both the first and second (MTERF1104-134; SEQ ID NO: 106) mterf motifs (FIG. 5A). The removal of N-terminal domains reduces the genetic footprint of a HumTAP (FIG. 5B). These constructs were co-transfected into HEK293 cells with the reporter construct containing 5×RE without a spacer in its promoter (SEQ ID NO: 48).
In addition to RelA430-551 (termed “v1”), the inventors tested three alternative subsequences: v2) RelA342-551 (SEQ ID NO: 29), which contains all transactivation domains as annotated on UniProt Q04206; v3) RelA361-551 (SEQ ID NO: 27), which is identical to the peptide used in the construction of PIT2 [2]; and v4) RelA521-551 (SEQ ID NO: 31), which constitutes only the transactivation domain 1 (TA1). The protein domains WW (SEQ ID NO: 21), KRAB of ZNF473 (SEQ ID NO: 23), Nuc-rec-co-Act (SEQ ID NO: 25), LMSTEN (SEQ ID NO: 19), and FoxoTAD (SEQ ID NO: 17) were recently identified as strong transactivators. To assess their functionality in the HumTAP context, the inventors created fusion proteins between each of them and MTERF158-399 (SEQ ID NO: 1) (FIG. 9A).
Upon co-transfection of HEK293 cells with plasmids encoding pEF1a-driven expression of the fusion HumTAPs, a Response Element-driven mCerulean reporter protein, and a mCherry transfection control, all peptides derived from RelA except TA1 mediated high levels of reporter gene expression. […]
A general note: Flow cytometry measures light scatter and fluorescence of single cells or particles in a stream.

[1] abbreviates: two copies of TAD fused to MTERF158-399.

On to “TA1: MTERF158-399 fused to the TA1 domain of RelA (PGLPNGLLSGDEDFSSIADMDFSALLSQISS; listed as Homo sapiens)”, for which the “reporter gene (mCerulean) expression” value is “did not activate reporter gene expression significantly” and the “reporter (mCerulean) expression” value is recorded as “little to no reporter expression”. For the molecule “NucRecCoAct: MTERF158-399 fused to the Nuc_rec_co-act domain of NCOA3 (EGQSDERALLDQLHTLLSNTDATGLEEIDRALGIPELVNQGQALEPKQ; listed as Homo sapiens)”, the “reporter gene (mCerulean) expression” value was “did not lead to high reporter expression” and the “reporter (mCerulean) expression” value is “little to no reporter expression”. As for “VP64: MTERF158-399 fused to VP64, viral-derived transactivation domain repeats of HHV11 linked by a GS linker (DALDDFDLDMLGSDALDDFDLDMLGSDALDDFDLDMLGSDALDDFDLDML)”, the “reporter gene (mCerulean) expression” value is recorded as “lower reporter expression than the benchmark”. For “WW: MTERF158-399 fused to the WW domain of WWC1”, the “reporter gene (mCerulean) expression” value is reported as “did not lead to high reporter expression” and the “reporter (mCerulean) expression” value is recorded as “little to no reporter expression”.

Consider “ZNF473 KRAB: MTERF158-399 fused to the KRAB domain of ZNF473 (FVTLKDVGMDFTLGDWEQLGLEQGDTFWDTALDNCQDLFLLDPP; listed as Homo sapiens)”, for which the “reporter gene (mCerulean) expression” value is “did not lead to high reporter expression” and the “reporter (mCerulean) expression” value is “little to no reporter expression”. “RelA342-551: MTERF158-399 fused to RelA342-551, containing all annotated transactivation domains”: the “reporter gene (mCerulean) expression” value is recorded as “stronger reporter gene expression”.

As to “FoxoTAD: MTERF158-399 fused to the FOXO-TAD domain of FOXO3 (HEKFPSDLDLDMFNGSLECDMESIIRSELMDADGLDFNFDS; listed as Homo sapiens)”, the “reporter gene (mCerulean) expression” value was “mediated significant mCerulean expression” and the “mCerulean expression, fold lower than the benchmark RelA430-551 TAD” value came to 8.4 fold.

B1: SEQ ID NO: 35: MTERF158-399 fused to two copies of RelA521-551 (protein)
chain: PGLPNGLLSGDEDFSSIADMDFSALLSQISSPGLPNGLLSGDEDFSSIADMDFSALLSQISS
B1: the “reporter (mCerulean) expression” value is “led to reporter expression”. Moreover, the “fluorescence relative to only one copy of the respective TAD” value under setting [1] was 201 times.

B2: MTERF1104-399: MTERF1 lacking N-term and first Mterf motif, fused to RelA430-551 (protein, listed as Homo sapiens)
chain: EQDLKMFLLSKGASKEVIASIISRYPRAITRTPENLSKRWDLWRKIVTSDLEIVNILERSPESFFRSNNNLNLENNIKFLYSVGLTRKCLCRLLTNAPRTFSNSLDLNKQMVEFLQAAGLSLGHNDPADFVRKIIFKNPFILIQSTKRVKANIEFLRSTFNLNSEELLVLICGPGAEILDLSNDYARRSYANIKEKLFSLGCTEEEVQKFVLSYPDVIFLAEKKFNDKIDCLMEENISISQIIENPRVLDSSISTLKSRIKELVNAGCNLSTLNITLLSWSKKRYEAKLKKLSRFA
Turning to B2, the “output expression / transcriptional activation” value was “reduced but not abolished” and the “reporter expression, times less than with MTERF158-399” value is ~ 1.5 times.

B3: SEQ ID NO: 33: MTERF158-399 fused to two copies of FOXO3604-644 (protein)
chain: HEKFPSDLDLDMFNGSLECDMESIIRSELMDADGLDFNFDSHEKFPSDLDLDMFNGSLECDMESIIRSELMDADGLDFNFDS
B3: the “reporter (mCerulean) expression” value is listed as “enhanced the transcriptional activity of the synthetic TF more than two copies of TA1 or two copies of LMSTEN”. Besides, the “mCerulean expression, fold more than the benchmark RelA430-551 TAD” value (fused to MTERF158-399, FIG. 9C) is recorded as ~ 2 fold. In addition, under setting [1], the “fluorescence relative to only one copy of the respective TAD” value was 12 times. Under “two copies of TAD fused to MTERF158-399, Example 4, FIG. 9C”, the “mCerulean/reporter expression, fold more than one copy of the TAD” value amounted to 20 fold.

B4: RelA361-551: MTERF158-399 fused to RelA361-551 transactivation domain (PIT2 version) (protein, listed as Homo sapiens)
chain: DEFPTMVFPSGQISQASALAPAPPQVLPQAPAPAPAPAMVSALAQAPAPVPVLAPGPPQAVAPPAPKPTQAGEGTLSEALLQLQFDDEDLGALLGNSTDPAVFTDLASVDNSEFQQLLNQGIPVAPHTTEPMLMEYPEAITRLVTGAQRPPDPAPAPLGAPGLPNGLLSGDEDFSSIADMDFSALLSQISS
Take B4: the “reporter gene (mCerulean) expression” value is given as “stronger reporter gene expression”.

B5: LMSTEN: MTERF158-399 fused to the LMSTEN domain of MYB (protein, listed as Homo sapiens)
chain: EAQNVSSHVPYPVALHVNIVNVPQPAAAAIQRHYNDEDPEKEKRIKELELLLMSTENELKGQQVLPTQNHTCSYPGWHST
In the case of B5, the “reporter gene (mCerulean) expression” value is “mediated significant mCerulean expression” and the “mCerulean expression, fold lower than the benchmark RelA430-551 TAD” value is given as 11.3 fold.

B6: MTERF173-399: MTERF1 lacking N-term, fused to RelA430-551 (protein, listed as Homo sapiens)
chain: EDLLKNLLTMGVDIDMARKRQPGVFHRMITNEQDLKMFLLSKGASKEVIASIISRYPRAITRTPENLSKRWDLWRKIVTSDLEIVNILERSPESFFRSNNNLNLENNIKFLYSVGLTRKCLCRLLTNAPRTFSNSLDLNKQMVEFLQAAGLSLGHNDPADFVRKIIFKNPFILIQSTKRVKANIEFLRSTFNLNSEELLVLICGPGAEILDLSNDYARRSYANIKEKLFSLGCTEEEVQKFVLSYPDVIFLAEKKFNDKIDCLMEENISISQIIENPRVLDSSISTLKSRIKELVNAGCNLSTLNITLLSWSKKRYEAKLKKLSRFA
For B6, the “output expression / transcriptional activation” value is reported as “reduced but not abolished” and the “reporter expression, times less than with MTERF158-399” value is recorded as ~ 1.5 times.

(Values after patent US20260200999A1, “SYNTHETIC TRANSCRIPTION FACTORS” (ETH ZURICH, priority 2022, published 2026).)
